We go through 10 molecules from US20260116966A1 (KEYMED BIOSCIENCES CHENGDU, published 2026).

Experiment [1] deals with T1, human GPRC5D (human, UniProt Q9NZD1 1-345).
T1 construct: Full length, on stably transfected cells (HEK293-hGPRC5D, CHO-hGPRC5D); Also used here for the endogenous GPRC5D of the GPRC5D+ myeloma lines MM.1R, MM.1S and NCI-H929; also called hGPRC5D; G-protein-coupled receptor family C group 5 member D
The experiment is described as follows: flow cytometry on CHO-hGPRC5D cells. (Flow cytometry measures light scatter and fluorescence of single cells or particles in a stream.)
Protocol: (§1) The binding of the antibodies to human and Cynomolgus GPRC5D stably transfected cells was detected by flow cytometry. […] Then, 100 μl/well of the cell suspension was added to a 96-well U-shaped plate, and centrifuged at 300 g for 5 min. The supernatant was discarded. 100 μL per well of serially diluted antibody was added (initial concentration: 200 nM, 3-fold dilution, 12 gradients), and incubated at 4° C. for 45 min. The secondary antibody 50 μL/well of Alexa Fluro647 labeled goat anti-human IgG Fc (1:300 dilution) was added, incubated on ice for 45 min, and detected by flow cytometry.

The target in the next experiment is T2, Cynomolgus GPRC5D (Cynomolgus, UniProt Q9NZD1 1-343 (human entry)).
T2 construct: Full length, on stably transfected cells (HEK293-cyGPRC5D, CHO-cyGPRC5D); also called cyGPRC5D
T2 chain: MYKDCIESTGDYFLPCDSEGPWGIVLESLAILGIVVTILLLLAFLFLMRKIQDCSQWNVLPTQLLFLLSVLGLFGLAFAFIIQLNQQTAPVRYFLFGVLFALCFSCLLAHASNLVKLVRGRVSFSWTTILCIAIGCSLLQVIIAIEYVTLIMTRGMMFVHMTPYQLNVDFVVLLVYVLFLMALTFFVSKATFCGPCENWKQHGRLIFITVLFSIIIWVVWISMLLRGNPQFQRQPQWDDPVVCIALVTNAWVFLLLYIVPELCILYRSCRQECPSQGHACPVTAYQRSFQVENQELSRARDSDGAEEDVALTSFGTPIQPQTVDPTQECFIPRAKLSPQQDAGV
The experiment is described as follows: flow cytometry on CHO-cyGPRC5D cells.

Experiment [2] concerns the target T1, human GPRC5D. The experiment is described as follows: cell-based or functional assay.
Experiment [3] has as its target T1, human GPRC5D. The experiment is described as follows: flow cytometry, MM.1R cells.
Protocol: The cell suspension was adjusted to a concentration of 5×10⁵ cells/mL, and 100 μL per well was added to a 96-well U-shaped plate, centrifuged at 300 g for 5 min. The supernatant was discarded. 100 μL per well of serially diluted antibody was added (initial concentration: 200 nM, 3-fold dilution, 10 gradients), and incubated at 4° C. for 60 min. The primary antibody was washed away, and 50 μL/well Alexa Fluro647 labeled goat anti-human IgG FC (1:300 dilution) was added, and incubated for 20 min. After washing once, 50 μL/well of PI was added, incubated for 5 min, and detected by flow cytometry.
For experiment [4], the target named is T1, human GPRC5D. The experiment is described as follows: cell-based or functional assay. This is another data set of the same source.
Experiment [5] deals with T1, human GPRC5D. The experiment is described as follows: flow cytometry, HEK293-hGPRC5D cells.
Protocol: Cell suspensions of HEK293-hGPRC5D and HEK293-hBCMA stably transfected cells in logarithmic growth phase were adjusted to 5×10⁵ cells/ml. Then, 100 μl/well of the cell suspension was added to a 96-well U-shaped plate, and centrifuged at 300 g for 5 min. The supernatant was discarded. 100 μL per well of serially diluted antibody was added, and incubated at 4° C. for 60 min. The secondary antibody 50 μL/well of Alexa Fluro647 labeled goat anti-human IgG Fc (1:300 dilution) was added, and incubated on ice for 20 min. After washing once, 50 μL/well of PI solution was added, incubated for 5 min, and detected by flow cytometry.
Experiment [6] concerns the target T3, biotinylated CD3 recombinant antigen (CD3εγ) (Homo sapiens (Human), UniProt P07766 23-126; P09693 23-116, Biotinylated; site and chemistry not stated. The letters do not carry the biotin.).
T3 construct: also called CD3e antigen; copies: 1 + 1
The experiment is described as follows: BLI, biotinylated antigen on SA probe, antibody as analyte. (In general: BLI is a label-free optical method that tracks binding on a fibre tip over time.)

Numbering of substitutions follows the chain as printed.

T1 sequence (Q9NZD1 whole entry): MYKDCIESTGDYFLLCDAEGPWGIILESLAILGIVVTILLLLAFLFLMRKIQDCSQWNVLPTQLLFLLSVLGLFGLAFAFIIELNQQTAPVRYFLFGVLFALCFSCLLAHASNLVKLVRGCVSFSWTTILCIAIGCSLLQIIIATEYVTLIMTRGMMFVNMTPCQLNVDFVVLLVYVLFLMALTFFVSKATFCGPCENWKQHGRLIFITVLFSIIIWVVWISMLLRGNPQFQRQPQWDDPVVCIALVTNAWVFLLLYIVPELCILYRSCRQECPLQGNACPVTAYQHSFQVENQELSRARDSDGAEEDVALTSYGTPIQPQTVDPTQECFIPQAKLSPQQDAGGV
T3 sequence (P07766 23-126 limits assumed, chain 1 of 2): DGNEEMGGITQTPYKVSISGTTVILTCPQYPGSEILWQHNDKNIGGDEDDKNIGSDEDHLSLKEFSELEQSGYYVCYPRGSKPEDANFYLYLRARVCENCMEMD
T3 sequence (P09693 23-116 limits assumed, chain 2 of 2): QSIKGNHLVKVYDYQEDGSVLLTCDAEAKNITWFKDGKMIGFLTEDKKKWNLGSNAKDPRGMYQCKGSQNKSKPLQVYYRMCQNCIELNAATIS
Protocol for Cynomolgus GPRC5D: as §1

B1: anti-GPRC5D chimeric antibody 8D1 (antibody, V domains shown)
VH: QVQLQQPGAELVKPGASVKLSCKASGYTFTSYYMYWVKQRPGQGLEWIGGINPSNGGTKYNEKFKSKATLTVDKSSSTAFMQLSSLTSEDSAVYYCTRGSLRSYYYAMDYWGQGTSVTVSS
VL: DIQMTQTTSSLSASLGDRVTISCRASQDISNYLNWYQQKPDGTVKLLIYYTSRLHSGVPSRFSGSGSGTDYSLTISNLEQEDLATYFCQQGYSLPYTFGGGTKLEIK
One may read the EC50 (read off the curve) as the concentration needed to bring the measured effect to its halfway point. Lower therefore signals higher potency in that assay. For the molecule B1, the binding result with human GPRC5D [1] is reported as “binds”. In addition, in the experiment with Cynomolgus GPRC5D, the “EC50 (read off the curve)” value was around 0.4 nM.

B2: anti-GPRC5D chimeric antibody 2F1 (antibody, V domains shown)
VH: EVLLQQSGPELVKPGTSMKISCKASGYSFTGYTMNWVKQRHGKNLEWIGLINPYNGGTRYNQKFKGRATLTVDKSSSTAYMELLSLTSEDSAVYYCARWALRYGMDYWGQGTSVTVSS
VL: DIVMTQSQKFMSTSVGDRVSVTCKASQNVGTNVAWYQQKPGHSPKALIYSASYRNSGVPDRFTGSGSGTDFTLTISNVQSEDLAEYFCQQYNSYLLTFGGGTKLELK
On to B2, for which the binding result with human GPRC5D [1] and with Cynomolgus GPRC5D was “binds” throughout.

B3: anti-GPRC5D chimeric antibody 6H1 (antibody, V domains shown)
VH: QAYLQQSGAELVRSGASVKMSCKASGYTFTSYNMHWVKQTPGQGLEWIGYIYPGNGGTNYNQKFKGKATLTADTSSSTAYMQISSLTSEDSAVYFCARGYGYRYWYFDVWGTGTTVTVSS
VL: QIVLTQSPAIMSASPGEKVTMTCSASSSVSYMHWYQQKSGTSPKRWIYDTSKLASGVPARFSGSGSGTSYSLTISSMEAEDAATYYCQQWNSKPPTFGSGTKLEIK
For B3, the binding result with human GPRC5D [1] and with Cynomolgus GPRC5D was “binds” each time.

B4: anti-GPRC5D chimeric antibody 2E1 (antibody, V domains shown)
VH: QVQLQQPGAELVKPGASVKLSCKASGYTFTRYWMHWVKQRPGQGLDWIGEFNPSNGRINYNEKFKNKATLTIDKSSSTAYMQLSSLTSEDSAVYYCTRGFAYWGQGTLVTVSA
VL: B3 VL with K18R, S28T, M32I, N91T, S92T, K93N, P95W, S99G
Take B4: the binding result in the experiment with human GPRC5D [1] and in the experiment with Cynomolgus GPRC5D was “binds” each time.

B5: anti-GPRC5D chimeric antibody 4B1 (antibody, V domains shown)
VH: B3 VH with K63N, T112A
VL: B3 VL with A59V, N91S, S92N, K93Y
B5: the “EC50 (read off the curve)” value in the experiment with human GPRC5D [1] was around 0.6 nM. The binding result in the experiment with Cynomolgus GPRC5D is listed as “binds”.

B6: 8D1 × CD3 GPRC5D×CD3 κλ bispecific antibody (bispecific antibody, human IgG4, V domains shown)
VH 1: QVQLVQSGAEVKKPGSSVKVSCKASGYTFTSYYMYWVREAPGQGLEWMGGINPSNGGTKYNEKFQGRVTLTVDKSSSTAYMELSSLRSEDTAVYYCTRGSLRSYYYAMDYWGQGTLVTVSS
VL 1: DIQMTQSPSSLSASVGDRVTITCQASQDISNYLNWYQKKPGKAPKLLIYYTSRLHSGVPSRFSGSGSGTDYTFTISSLQPEDIATYFCQQGYSLPYTFGQGTKLEIK
VH 2: EVQLVESGGGLVQPGGSLRLSCAASGFTFNTYAMNWVRKAPGKGLEWVGRIRSKYNNYATYYADSVKDRFTISRDDSKNSLYLQMNSLKTEDTAVYYCVRHGNFGNSYVSWFAYWGQGTLVTVSS
VL 2: QAVVTQEPSLTVSPGGTVTLTCRSSTGAVTTSNYANWVQEKPGQAPRGLIGGTNKRAPWTPARFSGSLLGGKAALTITGAQAEDEAEYYCVLWYSNLWVFGGGTKLTVL
notes: Human IgG4 knob-into-hole Fc with Ser228Pro, Leu235Glu, Pro329Ala
By EC50 is commonly meant the midpoint of the concentration-response curve. Lower therefore signals a more potent agent. Take B6: the “TDCC EC50 (pM), MM.1R” value in the experiment with human GPRC5D [2] turned out to be 32.9 pM. In the experiment with human GPRC5D [3], the EC50 was determined as 3.34 nM and the “Maximum fluorescence intensity (MFI, 200 nM)” value worked out at 89000 MFI.

B7: 15D1 × CD3 GPRC5D×CD3 κλ bispecific antibody (bispecific antibody, human IgG4, V domains shown)
VH 1: QVQLVQSGAEVKKPGSSVKVSCKASGYTFTNYVMHWVKEKPGQGLEWMGYINPYNDGTKYNEKFQGRVTLTSDKSSNTAYMELSSLRSEDTAVYYCARGGVRRYFDYWGQGTLVTVSS
VL 1: DIQMTQSPSSLSASVGDRVTITCRASQDIGSNLNWLQKEPGKAPKRLIYATSSLDSGVPSRFSGSRSGSDYTLTISSLQPEDFATYYCLQYASFPYTFGQGTKLEIK
VH 2: B6 VH 2
VL 2: B6 VL 2
notes: as for B6
In the case of B7, in the experiment with human GPRC5D [2], the “TDCC EC50 (pM), MM.1R” value is 96.5 pM. Moreover, the “Maximum fluorescence intensity (MFI, 200 nM)” value with human GPRC5D [3] stood at 12800 MFI.

B8: GPRC5D × BCMA × CD3 triTCE-v3 trispecific antibody (other)
light 1: QAVVTQEPSLTVSPGGTVTLTCRSSTGAVTTSNYANWVQEKPGQAPRGLIGGTNKRAPWTPARFSGSLLGGKAALTITGAQAEDEAEYYCVLWYSNLWVFGGGTKLTVLGQPKAAPSVTLFPPSSEELQANKATLVCLISDFYPGAVTVAWKADSSPVKAGVETTTPSKQSNNKYAASSYLSLTPEQWKSHRSYSCQVTHEGSTVEKTVAPTECS
heavy 1: DIQMTQSPSSLSASVGDRVTITCQASQNVGTNVAWYQQKPGQAPKALIYSASYLNSGVPSRFSGSGSGTDFTFTISSLQPEDIATYFCQQYNSYLLTFGCGTKVEIKGGGGSGGGGSGGGGSQVQLVQSGAEVKKPGSSVKVSCKASGYSFTGYTMNWVRQAPGQCLEWMGLINPYNGGTRYNQKFQGRVTITADESTSTAYMELSSLRSEDTAVYYCARWALRYGMDYWGQGTLVTVSSGGGGSGGGGSGGGGSEVQLVESGGGLVQPGGSLRLSCAASGFTFNTYAMNWVRKAPGKGLEWVGRIRSKYNNYATYYADSVKDRFTISRDDSKNSLYLQMNSLKTEDTAVYYCVRHGNFGNSYVSWFAYWGQGTLVTVSSASTKGPSVFPLAPCSRSTSESTAALGCLVKDYFPEPVTVSWNSGALTSGVHTFPAVLQSSGLYSLSSVVTVPSSSLGTKTYTCNVDHKPSNTKVDKRVESKYGPPCPPCPAPEFEGGPSVFLFPPKPKDTLMISRTPEVTCVVVDVSQEDPEVQFNWYVDGVEVHNAKTKPREEQFNSTYRVVSVLTVLHQDWLNGKEYKCKVSNKGLASSIEKTISKAKGQPREPQVYTLPPCQEEMTKNQVSLWCLVKGFYPSDIAVEWESNGQPENNYKTTPPVLDSDGSFFLYSKLTVDKSRWQEGNVFSCSVMHEALHNHYTQKSLSLSLGK
light 2: DIVLTQSPASLAVSPGQRATITCRASKSVSTSGYSYMHWYQKKPGQPPKLLIYLASNLESGVPARFSGSGSGTDFTLTINPVEAEDTANYYCQHSRELPWTFGQGTKVEIKRTVAAPSVFIFPPSDEQLKSGTASVVCLLNNFYPREAKVQWKVDNALQSGNSQESVTEQDSKDSTYSLSSTLTLSKADYEKHKVYACEVTHQGLSSPVTKSFNRGEC
heavy 2: QVQLVQSGSELKKPGASVKVSCKASGYIFTNFGMNWVREAPGQGLEWMGWINTYTGEQIYADGFTGRFVFSLDTSVSTAYLQISSLKAEDTAVYFCARGEIYYGYDVGFVYWGQGTLVTVSS
notes: Trispecific antibody: GPRC5D scFv fused to the N-terminus of the heavy chain of the CD3 arm
What is called Kd is the free concentration of one partner at which half of the binding sites on the other are occupied at equilibrium, for simple one-to-one binding. For the molecule B8, the “TDCC EC50 (nM), HEK293-hGPRC5D” value with human GPRC5D [4] came out at 0.278 nM. A half-maximal response in the experiment with human GPRC5D [5] (EC50) required 2.7 nM. For the same molecule, the dissociation constant (Kd) in experiment [6] amounted to 58.2 nM.

B9: GPRC5D × BCMA × CD3 triTCE-v4 trispecific antibody (other)
light 1: B8 light 1
heavy 1: QVQLVQSGAEVKKPGSSVKVSCKASGYSFTGYTMNWVRQAPGQCLEWMGLINPYNGGTRYNQKFQGRVTITADESTSTAYMELSSLRSEDTAVYYCARWALRYGMDYWGQGTLVTVSSGGGGSGGGGSGGGGSDIQMTQSPSSLSASVGDRVTITCQASQNVGTNVAWYQQKPGQAPKALIYSASYLNSGVPSRFSGSGSGTDFTFTISSLQPEDIATYFCQQYNSYLLTFGCGTKVEIKGGGGSGGGGSGGGGSEVQLVESGGGLVQPGGSLRLSCAASGFTFNTYAMNWVRKAPGKGLEWVGRIRSKYNNYATYYADSVKDRFTISRDDSKNSLYLQMNSLKTEDTAVYYCVRHGNFGNSYVSWFAYWGQGTLVTVSSASTKGPSVFPLAPCSRSTSESTAALGCLVKDYFPEPVTVSWNSGALTSGVHTFPAVLQSSGLYSLSSVVTVPSSSLGTKTYTCNVDHKPSNTKVDKRVESKYGPPCPPCPAPEFEGGPSVFLFPPKPKDTLMISRTPEVTCVVVDVSQEDPEVQFNWYVDGVEVHNAKTKPREEQFNSTYRVVSVLTVLHQDWLNGKEYKCKVSNKGLASSIEKTISKAKGQPREPQVYTLPPCQEEMTKNQVSLWCLVKGFYPSDIAVEWESNGQPENNYKTTPPVLDSDGSFFLYSKLTVDKSRWQEGNVFSCSVMHEALHNHYTQKSLSLSLGK
light 2: B8 light 2
heavy 2: B8 heavy 2
notes: as for B8
B9: in the experiment with human GPRC5D [4], the “TDCC EC50 (nM), HEK293-hGPRC5D” value came to 0.446 nM. For the same molecule, the EC50 with human GPRC5D [5] stood at 9.9 nM. Moreover, the Kd in experiment [6] came out at 64.4 nM.

B10: anti-GPRC5D chimeric antibody 15D1 (antibody, V domains shown)
VH: EVQLQQSGPELGKPGASVKMSCKASGYTFTNYVMHWVKQKPGQGLEWIGYINPYNDGTKYNEKFKGKATLTSDKSSNTAYMELSSLTSEDSAVYYCARGGVRRYFDYWGQGTTLTVSS
VL: DIQMTQSPSSLSASLGERVSLTCRASQDIGSNLNWLQQEPDGTIKRLIYATSSLDSGVPKRFSGSRSGSDYSLTISSLESEDFVDYYCLQYASFPYTFGGGTKLEIK
For B10, the “EC50 (read off the curve)” value in the experiment with human GPRC5D [1] was around 0.1 nM. Also, the binding result with Cynomolgus GPRC5D is “binds”.
